Source: the Human Domainome abundance scans (Beltran et al. 2025)
± gives the uncertainty stated by the source.

B1: Transcriptional regulator ERG, residues 117 to 197; numbered along this chain, P11308 (parent)
chain: NMTTNERRVIVPADPTLWSTDHVRQWLEWAVKEYGLPDVNILLFQNIDGKELCKMTKDDFQRLTPSYNADILLSHLHYLRE

Variants of: B1
Assay: abundance fitness (aPCA) (normalised: wild type 0, dead -1); higher = more abundant; growth selection in yeast, the domain comes from the species named
Conditions: Homo sapiens

Abundance fitness: each site, then its substitutions
D58: L -0.03 ± 0.056 | W -0.132 ± 0.066 | P 0.103 ± 0.1 | A 0.039 ± 0.054 | Q -0.088 ± 0.083 | G -0.078 ± 0.042 | H 0.202 ± 0.18 | T -0.072 ± 0.087 | Y 0.004 ± 0.12 | R 0.011 ± 0.046 | S -0.1 ± 0.084 | K -0.063 ± 0.12 | C -0.134 ± 0.092 | N -0.169 ± 0.13 | I 0.055 ± 0.14 | F -0.096 ± 0.16
M55: A -0.842 ± 0.18 | R -0.65 ± 0.098 | Q -0.924 ± 0.24 | C -0.278 ± 0.1 | K -0.315 ± 0.097 | D -0.745 ± 0.34 | F -0.136 ± 0.12 | W -0.091 ± 0.069 | E -1.09 ± 0.24 | T -0.703 ± 0.18 | N -0.37 ± 0.25 | I -0.431 ± 0.18 | L -0.023 ± 0.059 | G -0.807 ± 0.087 | S -1.14 ± 0.28
K54: T -0.094 ± 0.084 | D 0.021 ± 0.099 | H -0.071 ± 0.099 | I -0.377 ± 0.17 | S 0.092 ± 0.055 | C -0.112 ± 0.095 | P -1.08 ± 0.32 | E 0.072 ± 0.055 | N -0.054 ± 0.09 | W -0.41 ± 0.09 | R -0.049 ± 0.046 | Y -0.117 ± 0.099 | F -0.227 ± 0.14 | Q -0.118 ± 0.12 | V -0.238 ± 0.063 | L -0.103 ± 0.055 | G -0.028 ± 0.037
D59: R -0.154 ± 0.067 | W -0.743 ± 0.18 | Y -0.666 ± 0.33 | G -0.204 ± 0.053 | K -0.199 ± 0.12 | V -0.232 ± 0.073 | H -0.244 ± 0.24 | M -0.204 ± 0.12 | S -0.155 ± 0.1 | E -0.09 ± 0.075 | A 0.068 ± 0.078 | F -0.538 ± 0.31 | L -0.765 ± 0.18 | N -0.24 ± 0.13 | C 0.027 ± 0.13 | T 0.059 ± 0.13 | Q -0.04 ± 0.12
F60: A -0.401 ± 0.08 | C -0.306 ± 0.11 | H -0.633 ± 0.41 | G -0.971 ± 0.12 | D -0.773 ± 0.41 | E -1.18 ± 0.39
K50: W -0.05 ± 0.04 | P -0.011 ± 0.054 | R -0.032 ± 0.031 | Q -0.022 ± 0.054 | V -0.009 ± 0.035 | N 0.032 ± 0.063 | I -0.1 ± 0.063 | L -0.054 ± 0.038 | T 0.014 ± 0.048
L52: W -0.809 ± 0.18 | P -0.886 ± 0.12 | H -0.689 ± 0.11 | M -0.324 ± 0.071 | K -0.728 ± 0.11 | N -0.97 ± 0.17 | I -0.126 ± 0.054 | V -0.308 ± 0.069 | T -1.11 ± 0.17 | Y -0.883 ± 0.13 | R -0.77 ± 0.11 | S -0.932 ± 0.12 | C -0.928 ± 0.22 | F -0.327 ± 0.07 | E -0.367 ± 0.18 | G -0.694 ± 0.17 | Q -0.946 ± 0.17 | A -0.695 ± 0.12
E51: R 0.001 ± 0.033 | G 0.022 ± 0.031 | V -0.051 ± 0.037 | W -0.267 ± 0.042 | Q -0.017 ± 0.049 | H -0.113 ± 0.077 | P -0.897 ± 0.14 | S 0 ± 0.038 | N -0.092 ± 0.096 | F -0.277 ± 0.1 | D -0.087 ± 0.062 | T 0.026 ± 0.052 | C -0.127 ± 0.058 | A 0.02 ± 0.04 | Y -0.026 ± 0.061 | K -0.025 ± 0.061 | M -0.054 ± 0.056 | I -0.319 ± 0.16
K57: F -0.15 ± 0.15 | E -0.023 ± 0.061 | M -0.165 ± 0.084 | N -0.234 ± 0.14 | R -0.016 ± 0.042 | P -0.028 ± 0.088 | D -0.093 ± 0.095 | Q -0.159 ± 0.11 | T -0.14 ± 0.088 | S -0.024 ± 0.062 | C -0.264 ± 0.12 | A 0.029 ± 0.055 | V -0.127 ± 0.055 | I 0.18 ± 0.12 | L -0.084 ± 0.055
C53: W -0.561 ± 0.11 | M 0.043 ± 0.058 | Q -0.269 ± 0.082 | R -0.391 ± 0.072 | Y -0.509 ± 0.12 | D -0.325 ± 0.085 | N -0.228 ± 0.072 | L 0 ± 0.038 | A -0.132 ± 0.048 | P -1.06 ± 0.19 | V -0.034 ± 0.041 | G -0.262 ± 0.058 | F -0.235 ± 0.054 | H -0.574 ± 0.09 | S -0.15 ± 0.046 | T -0.06 ± 0.046 | E -0.471 ± 0.11 | I -0.099 ± 0.051
T56: V -0.066 ± 0.056 | A -0.118 ± 0.077 | D -0.01 ± 0.081 | R -0.082 ± 0.051 | P -0.632 ± 0.2 | Q -0.108 ± 0.14 | Y -0.457 ± 0.16 | C -0.024 ± 0.17 | L -0.265 ± 0.07 | E -0.058 ± 0.07 | S 0.077 ± 0.072 | K 0.081 ± 0.087 | H -0.123 ± 0.23 | N -0.076 ± 0.11 | F -0.502 ± 0.19 | I -0.236 ± 0.17 | M -0.282 ± 0.12 | G 0.042 ± 0.041
